Percentage of the total cellular amount of the substrate bound to NPM/ALK, stoichiometry of the association (ratio) (ratio NPM/ALK:NPM) and percentage of the total cell pool of NPM/ALK bound to the substrate data for four substances are collected here from patent publication US20010021505A1.

Experiment [1] has as its target NPM/ALK fusion protein (human). The experiment in a line: co-immunoprecipitation with anti-ALK serum, immunoblot, SUP-M2 lysates.
The target in experiment [2] is wild-type NPM (nucleophosmin) (human) (UniProt P06748). The experiment in a line: co-immunoprecipitation, anti-NPM immunoblot.
Experiment [3] addresses phospholipase-Cγ (PLC-γ) (human) (UniProt P19174). Nature of the experiment: co-immunoprecipitation, immunoblot, SUP-M2 lysates.
The target in experiment [4] is 85 kDa subunit of phosphatidylinositol 3-kinase (PI3-K) (human) (UniProt P27986). The experiment in a line: co-immunoprecipitation, immunoblot, SUP-M2 lysates.
Experiment [5] has as its target T1, Src homologous and collagen (SHC) protein (human) (UniProt P29353).
T1 sequence (tyrosine-phosphorylated (sites not given), looked up): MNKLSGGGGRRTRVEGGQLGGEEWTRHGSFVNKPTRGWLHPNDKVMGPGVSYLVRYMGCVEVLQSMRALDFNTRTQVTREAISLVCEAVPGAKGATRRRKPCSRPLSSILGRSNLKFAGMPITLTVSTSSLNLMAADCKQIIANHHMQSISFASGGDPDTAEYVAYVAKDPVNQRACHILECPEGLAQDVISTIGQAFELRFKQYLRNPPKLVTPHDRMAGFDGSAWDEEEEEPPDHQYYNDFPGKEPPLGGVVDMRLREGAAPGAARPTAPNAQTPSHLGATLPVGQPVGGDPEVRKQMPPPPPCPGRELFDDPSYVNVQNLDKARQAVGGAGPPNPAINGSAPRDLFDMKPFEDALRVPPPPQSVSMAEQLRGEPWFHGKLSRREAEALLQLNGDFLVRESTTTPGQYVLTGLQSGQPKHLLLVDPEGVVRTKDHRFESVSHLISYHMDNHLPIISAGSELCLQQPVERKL
Nature of the experiment: co-immunoprecipitation, immunoblot, SUP-M2 lysates.

Chain of UniProt P06748 (P06748 whole entry): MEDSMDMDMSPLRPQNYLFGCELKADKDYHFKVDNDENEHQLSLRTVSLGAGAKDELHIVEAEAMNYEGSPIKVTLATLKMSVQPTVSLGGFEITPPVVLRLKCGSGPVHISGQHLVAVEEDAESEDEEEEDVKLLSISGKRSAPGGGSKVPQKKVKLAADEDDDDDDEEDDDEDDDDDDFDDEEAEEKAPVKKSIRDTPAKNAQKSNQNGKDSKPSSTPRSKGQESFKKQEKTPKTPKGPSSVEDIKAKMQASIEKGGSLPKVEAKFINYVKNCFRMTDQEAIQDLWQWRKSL
Chain of UniProt P19174 (P19174 2-1290): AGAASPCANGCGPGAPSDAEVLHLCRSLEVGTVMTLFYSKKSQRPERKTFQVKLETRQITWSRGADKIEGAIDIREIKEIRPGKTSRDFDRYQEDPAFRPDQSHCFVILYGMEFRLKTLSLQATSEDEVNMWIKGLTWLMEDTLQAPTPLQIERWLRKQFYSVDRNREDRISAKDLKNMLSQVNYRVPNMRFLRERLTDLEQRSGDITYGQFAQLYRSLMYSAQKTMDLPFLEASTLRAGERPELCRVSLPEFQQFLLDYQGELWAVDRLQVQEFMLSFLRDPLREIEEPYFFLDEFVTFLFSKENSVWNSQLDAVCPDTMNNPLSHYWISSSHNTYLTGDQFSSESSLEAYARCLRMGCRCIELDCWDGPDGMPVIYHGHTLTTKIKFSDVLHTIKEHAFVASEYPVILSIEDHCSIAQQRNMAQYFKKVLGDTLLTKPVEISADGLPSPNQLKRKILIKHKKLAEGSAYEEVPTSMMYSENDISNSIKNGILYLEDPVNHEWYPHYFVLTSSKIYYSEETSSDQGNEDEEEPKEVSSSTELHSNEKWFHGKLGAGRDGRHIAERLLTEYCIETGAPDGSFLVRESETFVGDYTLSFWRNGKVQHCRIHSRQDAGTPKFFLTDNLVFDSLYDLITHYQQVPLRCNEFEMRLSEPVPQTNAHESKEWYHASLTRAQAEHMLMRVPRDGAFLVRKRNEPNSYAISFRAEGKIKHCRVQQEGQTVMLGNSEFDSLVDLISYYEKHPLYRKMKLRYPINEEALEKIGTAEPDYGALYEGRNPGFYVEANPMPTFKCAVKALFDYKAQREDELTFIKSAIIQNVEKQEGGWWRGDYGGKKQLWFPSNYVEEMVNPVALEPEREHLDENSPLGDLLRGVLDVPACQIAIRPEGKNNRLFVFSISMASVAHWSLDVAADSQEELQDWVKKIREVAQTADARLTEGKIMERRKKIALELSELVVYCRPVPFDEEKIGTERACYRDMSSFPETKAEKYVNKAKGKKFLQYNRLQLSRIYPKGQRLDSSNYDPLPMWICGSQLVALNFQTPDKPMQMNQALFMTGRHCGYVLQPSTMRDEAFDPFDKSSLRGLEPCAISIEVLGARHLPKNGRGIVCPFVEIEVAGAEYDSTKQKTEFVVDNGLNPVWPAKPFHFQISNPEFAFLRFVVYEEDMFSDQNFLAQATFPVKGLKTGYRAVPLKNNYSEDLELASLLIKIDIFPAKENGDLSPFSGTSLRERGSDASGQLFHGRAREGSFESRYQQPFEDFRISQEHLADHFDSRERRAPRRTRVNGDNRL
Chain of UniProt P27986 (P27986 2-724): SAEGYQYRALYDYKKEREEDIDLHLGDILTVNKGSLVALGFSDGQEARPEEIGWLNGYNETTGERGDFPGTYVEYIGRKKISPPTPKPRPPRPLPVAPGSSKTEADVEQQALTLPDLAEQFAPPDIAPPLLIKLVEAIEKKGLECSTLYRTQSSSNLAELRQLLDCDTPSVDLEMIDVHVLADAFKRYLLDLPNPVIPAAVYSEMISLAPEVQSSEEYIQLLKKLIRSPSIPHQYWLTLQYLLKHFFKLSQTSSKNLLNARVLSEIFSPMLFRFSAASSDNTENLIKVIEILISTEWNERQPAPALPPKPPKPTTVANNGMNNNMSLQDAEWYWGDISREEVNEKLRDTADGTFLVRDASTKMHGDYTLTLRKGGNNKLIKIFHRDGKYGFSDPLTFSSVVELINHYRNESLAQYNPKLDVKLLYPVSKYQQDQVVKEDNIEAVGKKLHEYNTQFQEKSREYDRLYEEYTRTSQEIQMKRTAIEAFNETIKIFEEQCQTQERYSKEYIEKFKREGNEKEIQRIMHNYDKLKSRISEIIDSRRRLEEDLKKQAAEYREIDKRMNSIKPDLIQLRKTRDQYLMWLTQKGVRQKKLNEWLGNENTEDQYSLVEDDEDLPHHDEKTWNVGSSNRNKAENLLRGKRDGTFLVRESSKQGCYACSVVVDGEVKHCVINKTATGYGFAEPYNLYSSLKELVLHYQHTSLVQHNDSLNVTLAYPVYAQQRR

Substance “85 kDa subunit of phosphatidylinositol 3-kinase (PI3-K) (from UniProt P27986 2-724)” had a percentage of the total cellular amount of the substrate bound to NPM/ALK in experiment [1] of 1%.
On the same count and under the same terms, to “phospholipase-Cγ (PLC-γ) (from UniProt P19174 2-1290) (enzyme)” belongs 1%.
On the same count and under the same terms, to “Src homologous and collagen (SHC) protein (from UniProt P29353 1-473)” belongs 10%.
On to NPM/ALK fusion protein (enzyme), for which the stoichiometry of the association (ratio) (ratio NPM/ALK:NPM) in experiment [2] was determined as 1. Also, the percentage of the total cell pool of NPM/ALK bound to the substrate in experiment [3], in experiment [4] and in experiment [5] was less than 5% in each case.
